Tested on: K4 kissing-loop RNA reporter
Test: apparent KD of K4 kissing-loop reporter; higher = weaker reporter binding
Settings: Eterna round: R107
Experimental: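 RNA-MaP round R107: designed RNA switches with theophylline, tryptophan, arginine or FMN aptamers are transcribed on-chip within common flanks. They are titrated with a labelled K4 kissing-loop RNA reporter in RNA-MaP buffer (100 mM Tris pH 7.5, 80 mM KCl, 4 mM MgCl2), without ligand or with the indicated ligand. Median apparent KD per design.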

[1] = input ligand: theophylline 20 uM
[2] = input ligand: tryptophan 2.4 mM
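Further: bound reporter read as fluorescence of individual clusters on recovered sequencing chips by microscopy, with normalized cluster intensities fitted with a binding model.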

Row | Sequence | apparent KD of K4 kissing-loop reporter (input ligand: FMN 200 uM) [nM] | apparent KD of K4 kissing-loop reporter (input ligand: arginine 13.2 mM) [nM] | apparent KD of K4 kissing-loop reporter (input ligand: none) [nM] | apparent KD of K4 kissing-loop reporter [1] [nM] | apparent KD of K4 kissing-loop reporter [2] [nM]
1 | AUUCUGUUUUUGAUGUUUAUUGUAUAAUGGCAGGAUAUCGUAGAAGCGAGAAGGGCUUUUAUGCGUUAUGAGUGAUGUUUGUAGG [eyeefvmullin] | 373 | 260 | 284 | 319 | 256
2 | UGUCAUUGGUCUGAUACCAGCUUGAUCGGAAAACGAUCUGCUGGAGUGAUGUUCCAAUAAAGCCCUUGGCAGCAGACCGAUGACU [TheoBS 7 #SwitchBubble #StaticStem] | 854 | 569 | 991 | 961 | 763
3 | UUGAGCCUGACGAAAGUCAGGCUCUGCGAGCGAGGACCGGUACGGCCGCCACUCGGUGCAGUGAUGUUGCAUGGCCGCAAGGCCG [#2 Exclusion - Tryptophan A Attempt #14 (HarryS)] | 309 | 300 | 289 | 312 | 456
4 | UACAUAUUAUUAUUUCUACAUUUAUUUAGUCAGGAUAUCGAUUAAACGAGAAGGGACAAUAUCAAGUGAUGUUUGAUAAUUCAAA [JR_SSFMNA_Sub022] | 85.3 | 123 | 81.6 | 118 | 60
5 | GCGGCCCAGCCGGAUACCAGUGACCCGCUGGGAACCGCGGGCCCAGAGUGAUGUUCGGGACACCCUUGGCAGCCGCCUGGGACGC [#2 Same State - Theophylline B Attempt #17 (HarryS)] | 588 | 126 | 546 | 334 | 193
6 | UGACAUUGCUCAGAUACCAGACCUGAGGAUCACCCGGGUGCCAAAACGUACUAAAUAAAGGUCCCUUGGCAGCUGAGCAAUGUCU [TheoBX 13] | 56.9 | 43.7 | 65.5 | 49.5 | 89.5
7 | GUCCAACCUGGAGGAUAUCUGCUGUCCAGUGAUGUUGGACACCUUAGUAAAGGCCGGGUAGCCCGCAGAGAAGGCCGGAGUUGCC [Isateron] | 265 | 354 | 429 | 390 | 329
8 | AAGUGAUGUUGUAGUGAUGUUGUGAUGUUGCAGGAUAUAUAGUGAUGUAGAAGGGUAUGUACAGAUUUUUUUUUUGAGUGAUGUU [ffdcmullin] | 112 | 45.5 | 73.8 | 59 | 81.4
9 | AAAGGAUCAGAGAGUGAUGUUCUCUAAUAACGAGGACCGGUACGGCCGCCACUCGAAGAUCCAAAAGUCCUACGAAAAGUAGGAC [Omei inspired 7] | 92.9 | 69.3 | 83.7 | 251 | 263
10 | UUCUACGAGUGAUGUUCGUAGUGUAAUAGCUAGGAUAUCGUUUUUUCGAGAAGGAGCUUCGAAGUGAUACGAAAGUAUCGCUUCG [FMN A 12] | 227 | 369 | 349 |  | 264
11 | AGACUUCACCGAAGGAGCGACGUGGCCUAGUGAUGUUAGGCACGAGAGAAAUCUCGUGUACGUCAGGUAGGUCGCGGUGAAGUCA [Omei KL Arginine B SS C v7] | 909 | 648 | 939 | 862 | 816
12 | GAGGAUUGAACGGCCGCCACUGCGCGCAGCUGCAAUCGAGUGAUGUUCCAUCAGUUGUCCAGUUCCAGGACCGGGUUCCGAUGCC [theeternabot_exclusion_KL_Trp_B_12] | 499 | 245 | 401 | 535 | 471
13 | UAGCGGUAGAGGCCACCGCUAUUCUGAGAAGGAGCGCAGAUGACUGCAGGUAGGUCGCUUAGAGCUUGCAGUGAUGUUGCAAGUU [Tebete] | 171 | 175 | 179 | 145 | 131
14 | AGACUACUGAUAGGAUAUAACAUCCUAGUCGUAUACCGAAAGGUAUACGAAACCCUUCUAGUGAUGUUAGAAGGGUCGGUAGUCA [Omei KL FMN B Exc B v9] | 79.8 | 67.1 | 80.9 | 59.6 | 69.4
15 | UGUGUUUACCUGACUCAGUGAUGUUGAGAAGGAGCGUGCUAAGGCACAGGUAGGUCGCUCAACCUAAAUUCAGGUGAGCACUAAA | 305 | 351 | 197 | 274 | 207
16 | CUCGUGGGUUUGAGAGGGCUUGUGGGAAGUAAGGAUAUUUAGGGAGGAAGAAGGUACUAUAGAAUAUAGUGAUGUUAUAUAUGGG [SSFMNA.Y] | 301 | 224 | 289 | 406 | 244
17 | AUUAUAAAGUCGGCCGCCACUGAGAGUAGUGAUGUUACUCUAUUCCUUUAGAUAUUAUAUUUUAUCAGGACCGGGACAUCAGAUU [JR_ExcTryptoB_Sub019] | 332 | 341 | 317 | 290 | 228
18 | UGACUGGACUGAAGGAGCGCUAAACUCCUAGUGAUGUUAGGAUAACGAGACAAAGUCUCGAGGCAGGUAGGUCGCAGUCUAGUCU | 128 | 134 | 131 | 137 | 128
19 | GGACAAGCAUUAGGAUAUAUAGAGCGAAACGCAAUUGAGUGAUGUUCAAAAGCAUAGGGCGAGGAAAUAGAAGGAAUGCACGGGC [Default title] | 192 | 180 | 216 | 151 | 152
20 | GAUUCUGUUCGAAAGAACGGAAUCUCGGAAGGAGCGAGAGAAAUCUCAGGUAGGUCGCCGAAUUUUUGAUAGUGAUGUUAUCAUU [Arginine A K4 3] | 432 | 380 | 441 | 393 | 397
21 | AAGUGUGUGGCGGCCGCCACUAGAAUCCAGUGAUGUUGGAGUUAUCAUAUAAAUGAUAAUCAACAUAGGACCGGGCCAUAUAGAA [Same State - Tryptophan B (Freestyle 7)] | 639 | 523 | 550 | 745 | 783
22 | UGACUACAAAAGGAAUAAUCCUAGUGAUGUUAGGAUAUGCUGAUAAGCAGAAGGAACGGAGAUCGAAAGAUCUCAAAUGUAGUCU [whbob_Ex_FMNA__2th191] | 153 | 89.8 | 82.9 | 112 | 86

Row | Sequence | apparent KD of K4 kissing-loop reporter (input ligand: FMN 200 uM) [nM] | apparent KD of K4 kissing-loop reporter (input ligand: arginine 13.2 mM) [nM] | apparent KD of K4 kissing-loop reporter (input ligand: none) [nM] | apparent KD of K4 kissing-loop reporter [1] [nM] | apparent KD of K4 kissing-loop reporter [2] [nM]
23 | UCCUGCAAUCUGCCACGAAAGUGGGUUGAUACCAGAGUCGAAAGACUCCCUUGGCAGCGAGUGAUGUUCGUUGCAGGUAAAUAAA [MatMod 8 - Jieux - Exclusion - Theophylline A] | 194 | 163 | 200 | 180 | 168
24 | CGCAGUGAUGUUGCUUUUAUUCUUGGUUAACGAGGACCGGUACGGCCGCCACUCGAUUUCUAUCUAUUCCAGUGUUUUUUUGAGU [JR_ExcTryptoA_Sub004] | 261 | 374 | 304 | 464 | 195
25 | UAAUAAAUUCCAGCUAUAUCACUCUUCGAAGGAGCGGACGAAAGUCCAGGUAGGUCGCGAAGAGUGAUGUUCUUUGCGGCGCUGG [Omei KL Arginine A Exc A v5] | 94.1 | 60.8 | 75.4 | 132 | 111
26 | UUUUAUUAGUAGUGAUGUUACUAAACUGAAGGAGCGAGAUUUAACUCAGGUAGGUCGCAGAAAAUCAAUUAAUUUAUAAAUUAAA [JR_SSArginiA_Sub011] | 97.7 | 87.8 | 99.8 | 87.2 | 94.6
27 | CGCAGUGAUGUUGCGAGUAACUACAGGGAAGGAGCGCGGUAGUCCGCAGGUAGGUCGCCCACGCAGUGAUGUUGCGUCAUAGGGU [Exclusion Arg A GF7] | 110 | 109 | 104 | 118 | 97.3
28 | CUUGGUCUACGAAGGAGCGCCGUGCAGUGAUGUUGCAGUCAGAUCGAGUGAUGUUUCGGGCGGCAGGUAGGUCGCGUGGCCCUUU [Excusion Arginine B GF 26] | 633 | 455 | 613 | 587 | 579
29 | AGCUAGUACGCAGGAUAUUGAACAUCAUUUAGUGAGAUCGAGUGAUGUUCGAUCACGACUUCAGUUCGAGAAGGGCGUACUAGCA [#02 K4 FMN B Same State] | 160 | 663 | 931 | 1070 | 861
30 | AGGUUUUGAUUAGGAUAUGCACUGACGACGAGAAUAUAGUGAUGUUAUAUAAUACGAAUUAGUAGAGUAGAAGGGAUUGAGGUUU [SSFMNB.X] | 422 | 307 | 348 | 390 | 286
31 | CUGAGCCUGACGAAAGUCAGGCUCUGCGAGCGAGGACCGGUACGGCCGCCACUCGGUGCAGUGAUGUUGCAUGGCCGCAAGGCCG [#2 Exclusion - Tryptophan A Attempt #18 (HarryS)] | 263 | 289 | 207 | 256 | 262
32 | AGGUGGGACGUAGGAUAUCCCUAAUGAUUUACUUCCUGGUUGCUACGCUUCCAGUGAUGUUGGAAGGGAGAAGGACGGGCGAGUU [Riatbive] | 365 | 217 | 213 | 217 | 222
33 | AUGGUUGUCGUAGGAUAUGUAGGAUAUUCUAAAAUAUGAAGUGAUGUUUCUAUAAUAAGAAGAAGGACAGAAGGACGAUAACCAC [FmnBS 1 - SaraBot transfer #DoubleAptamer] | 90.4 | 104 | 114 | 89.3 | 108
34 | UUUGGAUUGCGCUAAGAGUGCAAGCGCCAACGAGGACCGGUACGGCCGCCACUCGCGGAGGAGUCCAGUGAUGUUGGACGGCCCG [Orbile] | 326 | 222 | 601 | 178 | 183
35 | UGAUACCAGACUGAUACCAGCCACAGAGUCAAAGACUCUGAAAGGGAAACCAGUGAUGUUGGCCCUUGGCAGCAGUCUGGUAUCU [TheoBX 23 #SwitchBubble #StaticStem] | 502 | 412 | 493 | 382 | 431
36 | CGUUUAUAGCAGGAUACCAGUACCCAUAAAGUACGUUAAUAGUAGAGUGAUGUUCUAAAGUACCCUUGGCAGCUUCCCGUGAGUG [ExTheophylB.T] | 88.9 | 129 | 103 | 134 | 67.8
37 | CGAGUACAUUGCGAUACCAGCGAUAGCAGUUCAACGCGCAGUCCGUUUAGUGAUGUUAGACGCCCUUGGCAGCGCUUCCUGGCAA [theeternabot_exclusion_KL_Theo_B_44] | 519 | 324 | 460 | 520 | 393
38 | UGAUAGGACAGAAGGAGCGGGAGUGAUGUUCCCAAAAGUAUAAGGUGUCAAAAGACACCCUCCCAGGUAGGUCGCUGUCCUAUCU | 153 | 330 | 353 | 302 | 367
39 | UUGGAGUGAUGUUCCAUAUCUUGAGCCGAAGGAGCGGCAUUAUUGCCAGGUAGGUCGCGGCAGAAGGUACCAGUGAUGUUGGAAA [Same State Arginine A GF 4] | 136 | 138 | 151 | 126 | 125
40 | GACCUAAGCUAUGAUACCAGUCUGGCACGAAGAAGUGAUGUUUCCCAGCGUUUGUCACUUGACCCUUGGCAGCAUGCGAUCAGCU [theeternabot_sameState_KL_Theo_B_29] | 197 | 106 | 151 | 165 | 128
41 | UUGGCUGGACGGGAUACCAGCCAAAUCGUGUGCUUGGGAUGUCUAAGAGCCAGUGAUGUUGGCCCUUGGCAGCCCUCCCAGCUUG [Inontixe] | 124 | 88.6 | 97.1 | 134 | 98.4
42 | AGUGAUGUGGGAAGGAGCGGUAUAUGAGUUCAGUGAUGUUGAAGUGAUGCUGUAGUGAUGUGCCAGGUAGGUCGCCUAGAUGUUA [whbob_Ex_Arginine_B_2th165] | 374 | 217 | 395 | 194 | 290
43 | ACGUAGUUCUAGGAUACCAGCCAAGGAGGGUAGGACAAAAGUCCUGUAGCCAGUGAUGUUGGCCCUUGGCAGCCUAGAACUACGA [Omei KL Theo B Exc B v3] | 162 | 183 | 138 | 139 | 151

— the supplement of paper PMC9170038
